Laboratory results published in the domain aggregation screens of Martell et al. (2025).

Experiment: soluble fraction after stress (log2 fold change); higher = more stays soluble; pooled small domains, quantitative proteomics
Conditions: stress: 50 degC
How it was run: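 After stress at 50°C, the amount of each protein still soluble was measured. This was done on pooled custom libraries of small protein domains, using high-throughput quantitative proteomics. The figure given is a base-two log fold change and stands for aggregation propensity, with higher values meaning more protein stays in solution.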

Row | Sequence | soluble fraction (log2)
1 | HMTHEIKIKSHSLFASEGTKYQWYLNNIKINDATSQELEITSPGIYKLEMTNFDGDVIEKQIIVGLTNS | -2.94
2 | HMGNRWENLISNKMIDDVDEELLRKYIAQAHDAGRIAISYTDRKTVLNQLELTDGDRLLNAGKVLFSD | -0.094
3 | HMSKMTLGENLRLLRREKGLSQEQVAQTLFVARQTISKWENGQAEPGVESLKALAKLYGVSLDRLVGA | -0.0483
4 | HMQDRDKNVPAGKELLDNEIARLNMSLKQVEQFALPRYNLKTLEDLYSGIGSGDIRLNHLINFLQSKLI | -0.135
5 | HMLTLDEKRRLQIMRVQVALTSLGLYNGRVDGVLNAETKLGLEFFQDLKGLPKSGTMTTPTLNALGVPA | -0.423
6 | HMLLQENRKLHSKLEELQLISRAKAVLIEYLKLTEPQAHRYIEKQAMDLGLTRPQVALNILKTYE | -0.202
7 | HMLGWEDVIQFEEVKGYGQHIWRDGNHLYYVTEEGGIAPQRVVYELPNELFALLESGERTQLEILSKLQ | -3.11
8 | HMSVETSDLLPLIEQVLSLNPDKVKEYQNGKKGLLGFFMGQIKQTAGVAIDVGTLKPLLEDALHKDL | -0.493
9 | HMPGSGELSRRLELAIRDRTAVRVTAAAAGQERSFTLLPVAITSGRLRATDEQAGVQRTLPLSAIVAVEA | -0.0911
10 | HMAKDEYGLTSNQRAFADEYIRNKGNATQAYLFAYPHIKKENTAAVNASRLLRNAKVSKYIADRTKEIL | 0.287
11 | HMAEVRTLLVPIELAGMRFDQVLAELLPEFSRSRLAAWIKSGDALLDGHDAKPKGVVRGGEQIEIRLA | 0.0321
12 | HMEIALNDKQILLFSNKLVHEPSFASKYSKVGESYDDFAIRISENLTIPDKVQEYLPYLEKVGFNI | -0.00852
13 | HMGQGSAFVYYEVLPKQTEYSLTRKLGLGYADLLSLNPQLARGLQAGMVLKIPRDKAGNLEVKNDLILE | -0.271
14 | HMTYIQSNLKFLRNKMNISQEELAKRLFVTHQTVSNHENGKSQPNFEMIEKYASFFNVPFEDLIHKDLSL | -0.0206
15 | HMNIKITKSKNSEHYSIIYNTKINGKRTSKIYENIGNFEKLKLRAGEQEPIEWLKNYVSELNKKQKEDT | 0.109
16 | HMSVSVEEDADGRVWVYYQDQKMDITDLFDENGVYGFNLEKGDRTVYVEVTKNADGTYSFTQTD | -0.0127
17 | HMERPKSLRELALEHLRNSIIDGSLKMGQVLSERKISEELGVSKSPVREALAQLRDEGLVSIEPQKGARV | 0.213
18 | HMDPTEPLFVGVVTAEPYLNIREYPTTQSKDLGDLFPGMHVNVYEIVPNWYRIDDGWVASAWVKRDWGGG | -1.2
19 | HMFDFGNHLRMLREKHGISQEELGRRVGRAGSVISNYENNIKIPTLDVLTTMARIYDVSLDYLVG | -1.36
20 | HMKDYQGNILIQSEGDRIDKFLFKYFNSFSRTKIKNHIINGNILVNDKNTIPAYVLKINDKISYDLSTSVK | -1.04
21 | HMSMEIQEIIRQLREKNDWSQEDMAERVGLSKNGYAKIERGETNLNLERLEQIANLFDLSVIDLIEMS | -0.796
22 | HMNAVYAEERRAYILAALEKRGTVHSYELAEQMGVSRETIRRDIMELSNRGLLVKTHGGAIST | -0.686
23 | HMKGISRVTMELIIDALKKETEPRTVQWIAEKTGLATQTTYRYLQYMVSEQTVEALNVYGKVVSLKAK | -0.314
24 | HMGDITIPDLQGMSFDQAREKLKALGLSIGKISYTSDTSKDDGVVISQGLQAGGKASKGATVDITINET | 0.0588
25 | HMLAPLAEMRGDTLDRLEKAVLELFSSRDFHEVSLQDVARRANVSLQTIYKYFGSKEALVYTMLDTLLGR | -0.661
26 | HMENNIILNYVKDNLNITEKDAKDLIELLGSDYYHIKNETNKIAAFLDGQPYSFEKIKNLISIDKEY | 0.0808
27 | HMVSAMLLHKKEILNLLAEEPEALHFASLLRAFGGRHIKNELKQIVDDLVRSGEILRLRGNRYTLPGADN | -1.21
28 | HMHPEPDPVLFIDGKEYPYDKLSELDETRVQSMTILPKKSAVKKYGDKYANRSIMEITLKKEN | 0.0957
29 | HMHINLEGLKKIDFRKKIGFLFGSEASGLSNKEVSYANYTLQIPTNINFKSLNLSHSLIIIAQFISSLLNS | -0.333
30 | HMKPSISKIYALWGVLQRSGKIKSQDKAALDAFVRKYTGVDHVKWLDESQARKIIEILKQMIA | -0.458
